Reference: the supplement of paper PMC9732359
± gives the uncertainty stated by the source.

assay: protein stability index of a GFP-peptide fusion (yeast GPS) (PSI 1-4); higher = more stable; sorted into four equal gates, so the index is relative within each strain; settings: doa10∆
In short: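 For each peptide, the protein stability index sums the read frequency in every gate after multiplying it by the gate number. Read frequencies came from plasmids that were PCR-amplified from each gate and Illumina-sequenced, with reads assigned to strains by barcodes. The gates were four equal bins of GFP/Cherry fluorescence ratio applied to mid-log yeast in leucine-free medium carrying a pooled library of tiled 17-residue yeast protein peptides fused downstream of GFP on a Cherry-expressing plasmid.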

Sequence | protein stability index
ILDFGPGGASGLGVLTH [FAS1] | 2.82 ± 0.082
ILDGQDVEENRSEFIES [YJR042W/NUP85] | 3.13 ± 0.09

same assay, conditions: pdr5∆

Sequence | protein stability index
HESYCLPMDTNLFKINS [YMR129W/POM152] | 1.72 ± 0.039
HEYIRHLALEIGEVYND [RPN1] | 2.09 ± 0.067
HFTEIKLNKVDKNELQQ [SIR3] | 2.88 ± 0.056
HGINLQNKKNLKWVAVV [SSN2] | 3.11 ± 0.051
HGQLKLSIQYMIQKVME [RPN5] | 2.73 ± 0.081
HHDGKLWNLNAYRTDVI [PRP8] | 3.28 ± 0.092
HIKKLLHQYYGDDESKI [FAS1] | 2.9 ± 0.085
HILLTELLAYQFASPVR [FAS2] | 1.7 ± 0.018
HINSILLARVIQMNNSL [SNF11] | 1.94 ± 0.11
HIQVNQAPKQRRRTYRA [RPL17A] | 2.34 ± 0.11
HKLVFVVRIKGINKIPP [RPL7A] | 1.57 ± 0.046
HKMSMMAHRVKVIPYST [RPO21] | 2.64 ± 0.062
HKSDVMSVDIDKKASMI [ASC1] | 2.79 ± 0.083
HKVSSQSTNLNRSAKNS [YCS4] | 2.41 ± 0.05
HLELYTSQYGTPSTETA [PRE3] | 1.9 ± 0.04
HLGKGTMTMDVFNDAHV [RPN1] | 2.98 ± 0.084
HLLLGFQVSNVISLGPN [YJL039C/NUP192] | 1.75 ± 0.049
HLLRQTNAFLDSLTRAV [SNF2] | 2.6 ± 0.066
HLSKSPADRPQGRRNSR [SIR4] | 2.85 ± 0.067
HLVMRAISLGLLKGSID [RPN9] | 2.55 ± 0.14
HNHDTGCDENDSTVNKS [YDL088C/ASM4] | 3.2 ± 0.079
HNSHLSLNYKFTTNKSK [SRP21] | 2.07 ± 0.052
HPLHELIIQYPPNNARR [ISW2] | 2.88 ± 0.056
HPPFIKYACLAIRKNGQ [SIN4] | 1.51 ± 0.039
HQNESSAASIPPQQTYH [RPN4] | 2.89 ± 0.074
HQQQQQQQQQQQQQQQQ [SNF5] | 2.88 ± 0.049

Sequence | protein stability index
HRASPADVSIKSILQEI [POP5] | 3.27 ± 0.1
HRINMDKYHPGYFGKVG [RPL28] | 3.41 ± 0.059
HSFAVLLHERKLLNDLA [NUT1] | 2.49 ± 0.057
HSLSQAIKWDGSSGGVI [PRE3] | 3.27 ± 0.21
HTEDESTKELKFSDIIQ [BRN1] | 2.89 ± 0.21
HTIFSDVCKTRFNHLVT [YML031W/NDC1] | 2.09 ± 0.044
HTSIRETLENGETRMKM [SMC2] | 2.79 ± 0.13
HTVTNSPNPTLQPVIPG [SNF5] | 2.32 ± 0.049
HVKRITKIAQSQTMAET [ECM29] | 2.46 ± 0.036
HVLKKNPLKNKQVLLRL [RPL4A] | 1.79 ± 0.086
HVLVGDLIKFSAETLSE [FAS1] | 2.78 ± 0.1
IAAKLINSGLYSVLLES [YML103C/NUP188] | 2.08 ± 0.099
IAAKTHILRISFLDRKR [SIN4] | 2.65 ± 0.09
IAEGKSKQDASPKPYAV [RPL8B] | 3.38 ± 0.063
IAINFTVNHSEKFPNDV [RPP1] | 2.87 ± 0.047
IALLTLKESVEGEFNGD [PRE8] | 2.77 ± 0.17
IASDGSYVNYRHMALLV [RPO21] | 1.89 ± 0.051
IASEVLIKQVPRLLGPQ [RPL1A] | 1.87 ± 0.14
IATGCKDGRIRIFKITE [YGL100W/SEH1] | 2.47 ± 0.066
ICGYTRKEGPTIYYVDS [PRE2] | 3.24 ± 0.081
ICNPVHKHREARGLTAT [RPL15B] | 2.52 ± 0.082
ICYNKKTEYVLNDLNHL [REC8] | 1.75 ± 0.091
IDATLKEELLRDGVLTV [RRP45] | 1.92 ± 0.05
IDDKTQNDELTMGMRAL [DIS3] | 2.83 ± 0.068
IDDVQTIKVVKRSMDAE [RPP1] | 2.89 ± 0.057
IDHSDESNRQSVIVDSK [ESC2] | 3.27 ± 0.077

Sequence | protein stability index
IDIPLDEQAFYNKDKAE [RPC37] | 3.38 ± 0.18
IDNGAESSENEAEDDDN [RPC53] | 3.62 ± 0.17
IDWASPEYGRIIASASY [YGL100W/SEH1] | 3.16 ± 0.053
IDYLQRNDKTLELMDSK [POP1] | 3.19 ± 0.14
IECFKPGDIVRAQVLSL [CSL4] | 2.04 ± 0.17
IEDPNLSSNITFDGKPT [YMR153W/NUP53] | 3.06 ± 0.056
IEEKLSSFSKKTLTEEV [YIL149C/MLP2] | 3.07 ± 0.052
IEEQGDALQDVEESSEK [DPB4] | 3.46 ± 0.079
IEIEDEKVSSVLSALEG [RPP2A] | 2.29 ± 0.034
IEITNSNDLCSQIFDQL [SRB8] | 2.96 ± 0.074
IEKCLKASELKLALGIA [RPN2] | 3.1 ± 0.13
IELKTDWVRFLALALGI [RPN1] | 1.37 ± 0.077
IEPQVINYLALNAANYN [ECM29] | 2.63 ± 0.12
IEQSITKNIPITHRDLH [SSN8] | 2.92 ± 0.041
IESNKLAGVLYESRNVA [RRP6] | 3.11 ± 0.074
IESQNLDLIPHSSSVFK [SRB4] | 2.9 ± 0.053
IETLDPALIRPGRIDRK [RPT2] | 3.18 ± 0.19
IFERMIEKCLKASELKL [RPN2] | 2.21 ± 0.099
IFKDLVTVFLFMLILAL [COB] | 1.19 ± 0.033
IFRGSLIGCIPYSKNAV [YDL088C/ASM4] | 2.51 ± 0.09
IGGRRFSEGTSADREIQ [RPT4] | 2.59 ± 0.088
IGKDTFVTRKSRKRAKK [PRP8] | 2.84 ± 0.096
IGKMYDEYLGSHTDQPA [NNF1] | 2.9 ± 0.17
IGLVKCTQMTDEGLLNM [GRR1] | 2.91 ± 0.066
IGVVSLTNGVTEHVRQN [RRP6] | 3.42 ± 0.11
IHEIDERLAKVNEMNDQ [NNF1] | 2.51 ± 0.14

Sequence | protein stability index
IHLLHDDRGPVLESIVA [BRR2] | 1.78 ± 0.06
IHYSWSFILYYRRALQS [YML103C/NUP188] | 1.09 ± 0.042
IIDAKTRNEQTTIQTEK [MCD1] | 3.23 ± 0.082
IIDEIKCIPKKGTVFQF [POP4] | 1.56 ± 0.074
IIEKITDQILQLLKEDS [RRP45] | 2.5 ± 0.11
IIFQQLLFWTDPRNLVN [YCG1] | 2.35 ± 0.067
IILPLDNATLTELVDKA [SSN2] | 3.16 ± 0.15
IIQLILWSIHPSRQFDH [SRB8] | 1.47 ± 0.049
IIRPILGKVRFANYKLL [SRB4] | 1.75 ± 0.043
IIRQLSELNEGNLSKRE [SRB8] | 3.53 ± 0.11
IISRLNADFQKPWFATV [FAS1] | 2.4 ± 0.063
IISTAIADSTHVKRITK [ECM29] | 2.95 ± 0.092
IIVENSGTSGDEDVDVL [RPN2] | 3.61 ± 0.095
IKCSQSSHLSDNDFIIN [POP5] | 2.85 ± 0.059
IKEIINASKVISTPIIN [RPO31] | 1.88 ± 0.17
IKIFELKLPADATTWRY [IRR1] | 2.06 ± 0.049
IKKFAKLHMGTDDVRLA [RPL31A] | 1.32 ± 0.042
IKKYASVVRVLVHTQIR [RPL3] | 2.32 ± 0.074
IKLSLKDKTKNISAEII [SMC4] | 3.09 ± 0.08
IKNISNRVGLTLDNIDD [ARP9] | 3.03 ± 0.11
IKPKPLWSGKQILSVAI [RPO21] | 1.53 ± 0.047
IKQQQQQQQQQNGQQPP [YML103C/NUP188] | 2.63 ± 0.039
IKRMAIRNIVEAAAVRD [RPS26A] | 1.68 ± 0.097
IKSGVAKLESLLENSVD [MTW1] | 3.4 ± 0.091
IKTRDACPLDNQPWQLA [HRT1] | 2.66 ± 0.063
IKWENAFVSVYSKNNPN [PRP8] | 2.77 ± 0.05
